Results taken from a protein production outcome set (Wang et al. 2014).

Test: label from the status in PepcDB records

Row | Sequence | protein production
1 | MLFSIVVHQMILFFSILLVGNVAAKQGVIQENYLPDLAKLVSKIFLPVLIFYMTYAGTTRQMVWENAAMIGLAALFYVVISAVTWIIAKGLRPAGDKAKVFQFAFIFGNTGFVGVPLLIALFPKDGILYLALFSIVDQLLFWTYGVYLATASDKKAKITLKSFVNPNIVAIALALIFIMIGAKLPTVIDDTLQTIKNAVGAMAMIYLGALIFYSDWKTAFKTKDLYFGIVVKMIILPILLGKLLLMTGLPNNMIWSMIILMSLPTMTVVPMIAKLYGHEGAYAAGITAATLAVSIVTIPVVVFFTT | failed
2 | MLLEPLKQLKQADARLNMTQGVLEGVVGEELGVLPGMDSIFSMLELERLVGFFRQATRKNHKGKPFDVIIYDGISTEETLRMIGLSSKTRLYAKYLRSLAEKTDLGRLTSPSIMRFVDESMNINSNKSPFDGMTSPAMWDTLERFLETGASAWRDPERFRSFLVMDPNNPMSVKAALRYWGCTVQAGSHVSGAFAISSSHLTSQIPKADFVPLPFASASVPFTITGLDWDKILLDQANSSIRELLSETVSHGTSLTQTVMFDTAKKLVTLFMPGFEKSEIKLYQYRGGSELLIEAGDQRRVIHLPSQIQGKVGGAKFVDRSLIVTMR | failed
3 | MTQQLFTLFAVFISLFLFGMAVMRAGLLTMNAEKARVGILRFVDNPLKGFFVGLLLTILLQSSSAVMIVTIGFVAAGYVTFRQSIGIILGTNVGTCFTVELIALDLHSLIVPLLLIGLIGLAIPHLITYCLGCVSFGLACIFISMNGLENLASPLAAIPAIQAFIELTNDWLIVGAGVGTLLTALIQSSTATTAIAMGFLNEEIIGIHGGIAIMLGANIGTCFTALLASIGSGRTSRLVAFAHLWLNVIGVLLFIPLIPHLSHFVMTLTTIPAIQLAHASTIFNVICSLAILPFVKPFASFIETLHGPSQ | failed
4 | MTTANTPVRPKSAIDAVADAYTEKLIELNPSFATTLGLPGHETEYQDYSPAGAAAHAEATRLALEALAGLEPSDDVDAVTLDAMRERLGLELEIHQSGWDAADLNNIASPAQDIRAIFDLMPTDTVEHWEHIAGRAANVPGAIEGYIASLRAAKDDRKVAAARQIRIVIEQTGRYAAEDGFFAKMAADASLGDAPLPAEVQDKLDAGTSAARSAYSALGAFLRDELLPVAPEKDAVGRERYSLASRSFIGAEVDLEETYAWGVQELERLISEQEKVAGQIKPGASIEEAKSILNNDPARQIKGTDALKAWMQELSDRAVSELADVHFDIPDVMKTLECMIAPTDEGGIYYTGPSDDFSRPGRMWWSVPAGEDTFTTWSETTTVFHEGVPGHHLQVATATYRRELLNNWRRNVCWVSGHGEGWALYAEQLMLELGYLKDPGDHMGMLDGQRMRAARVVFDIGVHLELPVPERWGTGTWTPEKGFDFLKANLDISEGQLQFEFTRYLGWPGQAPSYKVGQRLWEQIRAELESREGFDLKSFHSKALNIGSVGLDVLRRALL | not failed
5 | MTDLEHAVESNRRAWDASADSHLRGGGWQELSLAVQETGFSCLDETLAGVLRNLDLAGKAAVQVGCNNGREVLSLYAFGVARAVGIDQSAAFLAQARQLAERSPHQPRFVEANAYELPAELNGQFDLLLITIGVLNWMPDIARFFASVSGLLKPGGQLAIYETHPFLEMLEPESERPFELRNDYFTDTPHVSREAIVYEGSGSDTGIASYWYVHPLGDILGGLLGAGLRLSHFKEYPHSNREELYDLYEDGPLAIPMCYTLVAVKA | failed
6 | NVVLRILAWLLAVGLVVLPVVAVLNGWVGAERWPLAKLRVSGDFKRVSAEELRAVVLPYVRSGFFAVRLPQVQDAVERLPWVERAHVSKRWPDVLEVSVVEHQPFARWGSDRMLSEQGRLFPVPGGLKNLKLPQLGGPDMKVRDVVALYKASSALFASTGLDVSWLQMDARGSWSLGLSNGLQIFVGRDDARARLERFARVLPQLLDPQRPVVRADLRYTN | failed
7 | MMQHCAPTPRLARFLFVEYRMMRQYELVERVQKYKPDANEALLNKAYVYAMQKHGQQKRANGDPYISHPLEVAAILTEMHLDESTIAVALLHDTIEDTTATRAEIDELFGEDIGRLVEGLTKLKKLDLVTRKAKQAENLRKLLLAISDDVRVLLVKLADRLHNMRTMEYMPADKRSRISEETMEIYAPLAGRMGMQDMRDELEDLSFRYLNPEAYETVTNRLLELETRNEGLIKKIEDELRELLVANGLLGTHVKGRQKKPYSVFRKMQSKSLSFEQLSDVYGFRILVDDIPGCYRALGIVHTRWRVVPGRFKDYISTPKQNDYRSIHTTIVGPSRQRIELQIRTKRMHEIAEFGIAAHALYKDGENGEGDLLSKESNAYSWLRHTIESLAEGDSPEEFLEHTKLELFQDQVFCFTPKGKLIALPRGATPIDFAYAVHTNIGDTTVGAKINGRIMPLVTRLNNGDEVEIIRSGVQVPPAAWEEVVVTGKARSAIRRATRMAIRKQYSGLGYRILERTFERAGKAFSREALKPVLHRLAQKDVEDAIAAVGRGEVSSLDVLRAVFPDYQDERVTVKMTGDDGWFNMRSASGMVFKIPGKSRSVLEDDGAAEMLDGPDPLPIRGLSGNVDVHFSAAGAVPGDRIVGIMEKGKGITIYPIQAPALQRFDDEPERWIDVRWDLDEANKSRFMARVMINALNEPGTLASVAQSIATLDVNIRGLNMVRIGTDFSELALDVEVWDLRQLNQLLSQLKDLDCVSTVARAFD | failed
8 | VKMSDKWIEIEEILSGLIGDLTIAVTVLKDYEGKAFLREPQHQTKRQCIWRLCVYSIVINCRKYVELNQKYGKEFQALIPGHNHIRGVYNNEINKNTAIKKLRNHCVAHVSDKSKYLKPAEVQEEIIKMFDGNFADEFLDWICPDNISTTDKSESLVGVIELLRDAVSAKL | not failed
9 | MDTDWSNLAVRLERLLERFERIIDRHDPVLPRDPAFFDGAIAFRWRRSGEQGTFEPVTHPHLPDPADLVGIDLVREDLIRNTAQFMDGYPANNVLLWGERGTGKSTCVKGMLRLFADRGLRLVEVQRDDLMSLPALIAALRSVPRRFILFCDDLSFGEGEGGYRELKALLEGSIEAKPTNILFYATSNRRHLLPERMEDNLSSEIHPEEAVSEKLSLADRFGMALGFYPFSQDVYLSIVERYAEKFALPMEREALRKEAHLWAMYRGSRSGRSARQFIDDLAGRLGVRLNDRLEHHHHHH | failed
10 | MKPVKVGICGLGTVGGGTFNVLERNAEEIARRAGRGIEVAQIAARRPNPKCDTGATPITADIFDVACNPEIDVVVELIGGYTLAHELVLKAIENGKHVVTANKALIAVHGNEIFAKAREKGVIVAFEAAVAGGIPVIKAIREGLSANRINWLAGIINGTGNFILSEMREKGRTFPDVLAEAQALGYAEADPTFDVEGIDAAHKLTILASIAFGIPLQFDKAYTEGISKLTSADVNYADALGYRIKHLGVARRTESGFELRVHPTLIPSDRLIANVNGVMNAVMVNGDAVGSTLYYGAGAGMEPTASSVVADLVDVVRAMTSDPENRVPHLAFQPDALSDHPILPIEACESAYYLRIQAKDHPGVLAQVATILSERGINIESIMQKEAEEQDGLVPMILVTHRVIEQRINDAIAALEALEGVSGPVVRIRVEQL | not failed
11 | MLAILGFVMMIVFMYLIMSNRLSALIALIVVPIVFALISGFGKDLGEMMIQGVTDLAPTGIMLLFAILYFGIMIDSGLFDPLIAKILSFVKGDPFKIAVGTAVLTMTISLDGDGTTTYMITIRAMLPLYKRLGMNRLVLAGIAMLGSGVMNIIPWGEPTARVLASLKLDTSEVFTPLIPAMIAGILWVIAVAYILGKKERKRLGVISIDHAPSSDPEAAPLKRPALQWFNLLLTVALMAALITSLLPLPVLFMTAFAVALMVNYPNVKEQQKRISAHAGNALNVVSMVFAAGIFTGILSGTKMVDAMAHSTRSLIPDAMGPHLPLITAIVSMPFTFFMSNDAFYFGVLPIIAEAASAYGIDAAEIGRASLLGQPVHLLSPLVPSTYLLVGMAGVSFGDHQKFTIKWAVGTTIVMTIAALLIGIISF | failed
12 | MTTPPARTAKQRIQDTLNRLELDVDAWVSTAGADGGAPYLVPLSYLWDGETFLVATPAASPTGRNLSETGRVRLGIGPTRDLVLVEGTALPLEPAGLPDGVGDTFAEKTGFDPRRLTTSYLYFRISPRRVQAWREANELSGRELMRDGEWLVTD | not failed
13 | MGHHHHHHSHGFNKFGGPRDQGSRHDSEQDNSDNNTIFVQGLGENVTIESVADYFKQIGIIKTNKKTGQPMINLYTDRETGKLKGEATVSFDDPPSAKAAIDWFDGKEFSGNPIKVSFAT | failed
14 | MNREKLMKMANTVRTGGKGTVRRKKKAVHKTNTTDDKRLQSTLKRIGVNSIPAIEEVNIFKDDVVIQFINPKVQASIAANTWVVSGSPQTKKLQDILPQIISQLGPDNMDNLKKLAEQFQKQASGEGNAASATIQEEDDDDVPELVGETFETAAEEKAPAAAASS | failed
